Experimental data as given in the DeepSol protein solubility set.

Assay: soluble on expression in E. coli; label from the status in PepcDB or PDB records

| Sequence | soluble on expression in E. coli |
| --- | --- |
| MSLTWVSVEAKIDYELDPTVLFHLTEENAGDRFYYKKNDNKTSFFGYHAITRFKNDFENKQSIFREWQKYKSDIELIHPSSDKHHLKICGGFQFSMHKSGDEWREFGINHFILPEVLITMENGVSYITYTVKAEQFEIEQFKALIAHLTQNTIDSEFEIGNIKRIEDIYKDEWRDLVKDTIDVLDEHKKIVLARKRLVMFDKNINIPYILQKASQGEHNSYLFVLESQDSIFFSQTPEQLMEVNNGILSTKAVAGTIKRTHQDEVDKENIQAFLNDDKNLNEHRFVVESILNDIAPYVRDITFNETPQILTNDHLYHLYTKIKGQLENDSYIGLLDNLHPTPALGGYPKAEAIEYIEQNEFGTRGLYGAPVGYIDMNDDCEFIVAIRSMLIKKNQATLFAGCGIVKNSDADSEVEETAVKFNPMMKALGVEEYEGHHHHHH | not soluble |
| MSLVLVKAMARIVMKFGGTSVANLERIHNVARHVKREVDAGHEVAVVVSAMSGKTNELVDWVQNAAKVAGTNAASFYDAREYDAVVASGEQVTSGLLAITLQSMGINARSWQGWQIPIRTDNAHGAARILEIDGSDIVHRMGEGQVAVVAGFQGIGPDNRIATLGRGGSDTSAVAIAAAVKADRCDIYTDVDGVYTTDPRIEPKARRMKKIAFEEMLEMASLGAKVLQVRSVELAMVHKVRTFVRSSFEDPDAPGMGDLINPPGTLICDEDEIVEQEVVTGIAYAKDEAQISLRRVADRPGVSAAIFGPLAEAHINVDMIVQNISEDGSRTDMTFTVPSGDVAKALRVLDENKGQIGFDVAQNETGLAKVSVIGIGMRSHAGVAASAFKALAEKNINIKAITTSEIKISILIDGAYAELAVRTLHSAYGLDKAEGHHHHHH | not soluble |
| MLQPPKIVAELSANHNQDLNLAKESLHAIKESGADFVKLQTYTPSCMTLNSKEDPFIIQGTLWDKENLYELYQKASTPLEWHAELFELARKLDLGIFSSPFSSQALELLESLNCPMYKIASFEIVDLDLIEKAARTQKPIILSSGIATHTELQDAISLCRRVNNFDITLLKCVSAYPSKIEDANLLSMVKLGEIFGVKFGLSDHTIGSLCPILATTLGASMIEKHFILNKSLQTPDSAFSMDFNGFKSMVEAIKQSVLALGEEEPRINPKTLEKRRFFARSLFVIKDIQKGEALTENNIKALRPNLGLHPKFYKEILGQKASKFLKANTPLSADDIERSLLEHHHHHH | not soluble |
| AIARGHGTYMDEDRLTASVAGQVERVNKLICVKPLKTRYNGEVGDVVVGRITEVQQKRWKVETNSRLDSVLLLSAVNLPGGELRRRSTQDELAMRDYLQEGDLISAEVQSIFSDGALSLHTRSLKYGKLGQGVLVYVSPSLVKRQKTHFHNLPCGASLILGNNGYVWLSPTPALQEEQAGGFYTSMEPVSLSDREVVSRLRNCLLALANQKVLLFDTSVLYCYEASLQHQIKDILKPEIMEEIVLETRQRLMEHEG | soluble |
| FTSPAVKRLLGWKQGDEEEKWAEKAVDALVKKLKKKKGAMEELEKALSCPGQPSNCVTIPRSLDGRLQVSHRKGLPHVIYCRVWRWPDLQSHHELKPLECCEFPFGSKQKEVCINPYHYKRVES | soluble |
| MSLYTASQLLDKINSHISDIRFTRTPAGLYDPIKYVLSMGGKRIRPVLMLMAYNLYKEDVSSIYDPATAIEVYHNYTLLHDDLMDRADMRRGKTTVHKVWNDNTAILSGDAMLVLAYQYMAASSSEHLKEVMDLFSLTALEICEGQQMDMNFESREDVKEEEYLEMIRLKTAVLLAASLKIGAILGGASPEDAENLYDFGMQIGVAFQLQDDLLDVYGDPAVFGKNIGGDILCNKKTYMLIKALERADRDQLEGLNHWLSATSFCPEEKISAVTELYTQIGIKAVCENKMREYYTRAMTSLGAVSVIEDKKSELKKLMKHLMYREGHHHHHH | soluble |
| MGSDKIHHHHHHMTIMILREIIDELSYQLKQRRIINVCVSPAYTSVMLDDQSIGISHTITDGEIEGAGEIIGKNAYDVVINNLDSNLQRSLSLAILNALGSMIDFTQGDPINLYSGGKLCVFGFSPQLSYSNFDSVIVYDFMSTENKKVGNTEIKPYSSLSREVCSTALIFASSIVNNTIDRIISQISANHLILTGISSVDAPITLKNHGFEVLGKLFPVEKYRVFRTICEGGSNKLLSKYIMRYFKKL | not soluble |
| MAHHHHHHMGKFVAEQYLRRGVSVTVLARDIAKAKSLFLPIADGQREQNRLASMGYRQLSSAAEKREMTASLHYRDFRRGDRHVLRYEFRNPRSVGGPSAGSANASCDQRFALELVEGDVGSTQDLEFSMRHASIVFYLTAALEEASGPALRADDRLRSSAAWWSLGSWFCGGRRFGGFLHALDACRRVDAHFVALTPLWVHGSCLSPFYWYRRLLTHPRGYCKAVQLQEQTLLSQSGSPGARCSLGADELEARQPGGDWGCWWRSRLSTEPPDDILIKSRSPVRFSLFRLSDVVFPSFNERIVASKNNRVDDDLHVTFIQQGDLDARLLANVLVKSIGLCNSVVESRIDIGGSLRGGTDMRDANAIFDLFEQLRNE | not soluble |
| TVNQAKIFAQTTKMLEFAKQLLETDDFSTLREAYYVSKNWGEARFDDQQASNNVIEDLEAALGVLREHLGFIPEEDGSSVVGPLKIIEETPEGELVVDCTKLGTGAYNIPNDVTKLNLETDADFILAIETSGMFARLNAERFWDKHNCILVSLKGVPARATRRFIKRLHEEHDLPVLVFTDGDPYGYLNIYRTLKVGSGKAIHLADKLSIPAARLIGVTPQDIIDYDLPTHPLKEQDIKRIKDGLKNDDFVRSFPEWQKALKQMLDMGVRAEQQSLAKYGLKYVVNTYLPEKIKDESTWLP | soluble |
| MMYFISDTHFYHENIINLNPEVRFKGFEIVILTNLLKVLKPEDTLYHLGDFTWHFNDKNEYLRIWKALPGRKILVMGNHDKDKESLKEYFDEIYDFYKIIEHKGKRILLSHYPAKDPITERYPDRQEMVREIYFKENCDLLIHGHVHWNREGIKCACKDYRIECINANVEWNDYKPISEREIDKLISYEKAKN | soluble |
| GPGSMVIKKDVPFKYTLHQGLCERDPVLSTPLIITAGVDGNELQYRLDMQVPSHSAIEGMEVTNVEFLFTSSKCNAGKSNQHLSKCSMLVYLYMQLLDGVGRPTSPPFPISCCNTHTGKGIFSCVKLPLQVNQQCRFYLVRRSCTDSASQSAMELKGVRFTSKLYLLYRSPLNSAKVRSQMDVLTGGDLKFTADTEVMTSTGAKRSREELERFGSENSDRKGKKAKRERETATTMDRASDDEPPNLIYAFVSGGDNES | soluble |
| MGSDKIHHHHHHMLENRVKTKQIFIGGVAIGGDAPISTQSMTFSKTADIESTKNQIDRLKLAGADLVRVAVSNEKDALALKELKKVSPLPLIADIHFHYKFALIAAQSVDAIRINPGNIGSKEKIKAVVDACKEKNIPIRIGVNAGSLEKQFDQKYGPTPKGMVESALYNAKLLEDLDFTNFKISLKASDVIRTIEAYRMLRPLVIYPFHLGVTEAGNLFSSSIKSAMALGGLLMEGIGDTMRVSITGELENEIKVARAILRHSGRLKEGINWISCPTCGRIEANLVDMAIKVEKRLSHIKTPLDISVMGCVVNALGEAKHADMAIAFGNRSGLIIKEGKVIHKLAEKDLFETFVIEVENLAKEREKSLKD | not soluble |
| YGQYLSIRKTETLLRNELSKLTPDTVEELSSKLPENSRSLVITYMRQVLDARDTPAQVQRLLANFEIAADKDLAISKTLTK | not soluble |
| MGSDKIHHHHHHMNSMLNILEEISSRIKRPLITLLLFKYLRSVKRLECKNGQIIEIDDPSKYFISDLVYVCDVFKHFKSIKVRNGKVILDGIPFRPSELRYIGDVIEKLKLRVGSNFIAEFIYNGRIVKFRLAMTSKGVTGVFSLYEMFVREDYKVFDYKGKTVLDVCGFIGDSALFFALNDAKKVVSFEPQREAYELLVENVKLNEFDNIIVAINEAVGEKDSMVEFLIPDEFSLGASRYIRAGKKTSVKVRDIIRVMNEFKPDIIKLDCEGCEYGIIDKLLKTGRIYDVEGLVVEFHDTPEVKRWDYIRSLPFDVAIISDNPHWKVTVVSIRVMQNDAPRHI | not soluble |
| MAQTEKLTDYVNPFVGTDGYGNVYPGAQIPFGGIQISPDTDSRFYDAASGYKYNHLTLMGFSLTHLSGTGIPDLGDFLFIPGTGEMKLEPGTHEDPDQGYRSRYSHDKEWASPNYYAVELADYGVKAEMTSGVRSGMFRFTYPESDNAFIMIDMNHTLWQSCEWSNLRMINDSTITGYKLVKGWGPERHVYFTATFSKKLEHHHHHH | not soluble |
| MLKVDKVFPWETFRGKLESPYSKKPKWDVILLLKVLLIKFVYEISWLEGEIRDSKMFMKFLGGKVHQKSILLLQETVVDEGERMWTTLMTQQGLRQGDLEHHHHHH | not soluble |
